Tests used:
[1] = tested on: acetyl-P-L-G-Hof-Y-L-Dox
[2] = tested on: acetyl-P-L-G-L-L-A-L-Dox
[3] = tested on: succinyl-P-L-G-Hof-Y-L-Dox
[4] = tested on: acetyl-P-L-G-L-L-S-L-Dox
[5] = tested on: acetyl-P-L-G-L-Y-A-L-Dox
[6] = tested on: acetyl-G-P-L-G-L-L-Dox
[7] = tested on: acetyl-G-P-L-G-L-A-L-Dox
[8] = tested on: acetyl-P-L-G-L-A-L-Dox
[9] = tested on: acetyl-G-P-L-G-L-Y-Dox
[10] = tested on: acetyl-P-L-G-L-Y-L-Dox
[11] = tested on: acetyl-P-L-G-Hof-Orn-L-Dox
[12] = tested on: acetyl-P-L-G-L-L-Dox
[13] = tested on: acetyl-P-L-G-L-A-A-L-Dox

With MMP-9 the kcat/Km (cleavage of conjugate, HPLC) [1] was 3.4e+07 M⁻¹ s⁻¹, the kcat/Km (cleavage of conjugate, HPLC) [2] was 1.3e+08 M⁻¹ s⁻¹ and the kcat/Km (cleavage of conjugate, HPLC) [3] was over 1.2e+08 M⁻¹ s⁻¹. The kcat/Km (cleavage of conjugate, HPLC) [4] was 1.49e+08 M⁻¹ s⁻¹, the kcat/Km (cleavage of conjugate, HPLC) [5] was 2.96e+08 M⁻¹ s⁻¹ and the kcat/Km (cleavage of conjugate, HPLC) [6] was 9.5e+07 M⁻¹ s⁻¹. For the same substance, the kcat/Km (cleavage of conjugate, HPLC) [7] was 1.9e+07 M⁻¹ s⁻¹, the kcat/Km (cleavage of conjugate, HPLC) [8] was 2.4e+07 M⁻¹ s⁻¹ and the kcat/Km (cleavage of conjugate, HPLC) [9] was 1.1e+08 M⁻¹ s⁻¹. For the same substance, the kcat/Km (cleavage of conjugate, HPLC) [10] was 3.9e+08 M⁻¹ s⁻¹, the kcat/Km (cleavage of conjugate, HPLC) [11] was 2.6e+07 M⁻¹ s⁻¹ and the kcat/Km (cleavage of conjugate, HPLC) [12] was 1.3e+08 M⁻¹ s⁻¹. It also gave a kcat/Km (cleavage of conjugate, HPLC) [13] of 1.65e+08 M⁻¹ s⁻¹.

From US20020103133
